B1: FHR-1 (factor H-related protein 1, FHR-1*B, wild-type) (natural protein)
chain: EATFCDFPKINHGILYDEEKYKPFSQVPTGEVFYYSCEYNFVSPSKSFWTRITCTEEGWSPTPKCLRLCFFPFVENGHSESSGQTHLEGDTVQIICNTGYRLQNNENNISCVERGWSTPPKCRSTDTSCVNPPTVQNAYIVSRQMSKYPSGERVRYQCRSPYEMFGDEEVMCLNGNWTEPPQCKDSTGKCGPPPPIDNGDITSFPLSVYAPASSVEYQCQNLYQLEGNKRITCRNGQWSEPPKCLHPCVISREIMENYNIALRWTAKQKLYLRTGESAEFVCKRGYRLSSRSHTLRTTCWDGKLEYPTCAKR
B2: FH18-20 (domain or fragment)
chain: TSCVNPPTVQNAYIVSRQMSKYPSGERVRYQCRSPYEMFGDEEVMCLNGNWTEPPQCKDSTGKCGPPPPIDNGDITSFPLSVYAPASSVEYQCQNLYQLEGNKRITCRNGQWSEPPKCLHPCVISREIMENYNIALRWTAKQKLYSRTGESVEFVCKRGYRLSSRSHTLRTTCWDGKLEYPTCAKR
B3: FH18-20(SA) (domain or fragment)
chain: TSCVNPPTVQNAYIVSRQMSKYPSGERVRYQCRSPYEMFGDEEVMCLNGNWTEPPQCKDSTGKCGPPPPIDNGDITSFPLSVYAPASSVEYQCQNLYQLEGNKRITCRNGQWSEPPKCLHPCVISREIMENYNIALRWTAKQKLYSRTGESAEFVCKRGYRLSSRSHTLRTTCWDGKLEYPTCAKR
B4: FH18-20(LA) (domain or fragment)
chain: TSCVNPPTVQNAYIVSRQMSKYPSGERVRYQCRSPYEMFGDEEVMCLNGNWTEPPQCKDSTGKCGPPPPIDNGDITSFPLSVYAPASSVEYQCQNLYQLEGNKRITCRNGQWSEPPKCLHPCVISREIMENYNIALRWTAKQKLYLRTGESAEFVCKRGYRLSSRSHTLRTTCWDGKLEYPTCAKR
B5: FH18-20(LV) (domain or fragment)
chain: TSCVNPPTVQNAYIVSRQMSKYPSGERVRYQCRSPYEMFGDEEVMCLNGNWTEPPQCKDSTGKCGPPPPIDNGDITSFPLSVYAPASSVEYQCQNLYQLEGNKRITCRNGQWSEPPKCLHPCVISREIMENYNIALRWTAKQKLYLRTGESVEFVCKRGYRLSSRSHTLRTTCWDGKLEYPTCAKR

These results are taken from PMC7959842 (2021).

C3b, sequence (P01024 23-667, chain 1 of 2): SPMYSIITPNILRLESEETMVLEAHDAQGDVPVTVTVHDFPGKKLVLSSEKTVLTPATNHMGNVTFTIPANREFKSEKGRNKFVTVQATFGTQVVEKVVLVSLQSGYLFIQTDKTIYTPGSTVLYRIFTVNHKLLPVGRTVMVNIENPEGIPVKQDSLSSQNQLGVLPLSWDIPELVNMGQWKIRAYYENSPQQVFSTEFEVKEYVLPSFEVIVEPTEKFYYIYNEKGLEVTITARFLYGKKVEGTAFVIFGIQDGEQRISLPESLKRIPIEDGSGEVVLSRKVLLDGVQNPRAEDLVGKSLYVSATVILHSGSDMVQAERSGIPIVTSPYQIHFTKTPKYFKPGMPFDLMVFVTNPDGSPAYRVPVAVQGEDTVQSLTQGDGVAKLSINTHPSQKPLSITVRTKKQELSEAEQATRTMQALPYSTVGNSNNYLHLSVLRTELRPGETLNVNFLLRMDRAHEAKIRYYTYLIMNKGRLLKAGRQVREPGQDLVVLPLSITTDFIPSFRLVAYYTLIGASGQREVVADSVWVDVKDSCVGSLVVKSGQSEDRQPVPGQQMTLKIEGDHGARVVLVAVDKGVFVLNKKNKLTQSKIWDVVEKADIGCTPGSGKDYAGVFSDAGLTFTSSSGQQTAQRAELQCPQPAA
C3b, sequence (P01024 749-1663, chain 2 of 2): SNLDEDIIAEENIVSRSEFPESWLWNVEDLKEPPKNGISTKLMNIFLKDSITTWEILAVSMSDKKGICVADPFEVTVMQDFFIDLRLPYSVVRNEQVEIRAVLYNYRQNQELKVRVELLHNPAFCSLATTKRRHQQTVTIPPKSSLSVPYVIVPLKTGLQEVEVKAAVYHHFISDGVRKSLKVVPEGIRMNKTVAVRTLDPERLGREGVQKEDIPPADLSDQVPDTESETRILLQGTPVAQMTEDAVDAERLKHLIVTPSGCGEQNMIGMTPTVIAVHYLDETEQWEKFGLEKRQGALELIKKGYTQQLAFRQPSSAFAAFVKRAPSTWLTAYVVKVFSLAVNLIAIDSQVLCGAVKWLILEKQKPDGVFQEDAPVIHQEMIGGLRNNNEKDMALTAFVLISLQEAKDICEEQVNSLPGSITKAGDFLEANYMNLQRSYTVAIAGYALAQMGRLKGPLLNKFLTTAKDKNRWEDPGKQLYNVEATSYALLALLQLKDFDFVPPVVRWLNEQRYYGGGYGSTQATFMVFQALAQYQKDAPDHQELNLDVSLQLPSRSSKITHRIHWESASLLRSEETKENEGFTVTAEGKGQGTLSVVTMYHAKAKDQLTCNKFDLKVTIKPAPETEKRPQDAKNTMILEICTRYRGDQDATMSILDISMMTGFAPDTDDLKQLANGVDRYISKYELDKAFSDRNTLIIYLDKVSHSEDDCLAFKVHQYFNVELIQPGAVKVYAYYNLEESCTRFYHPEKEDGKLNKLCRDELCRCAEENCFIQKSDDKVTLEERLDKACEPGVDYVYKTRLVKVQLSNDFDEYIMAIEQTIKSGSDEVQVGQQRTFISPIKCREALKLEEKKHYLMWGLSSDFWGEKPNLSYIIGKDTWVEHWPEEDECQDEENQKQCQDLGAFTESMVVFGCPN

The assay addresses C3b (UniProt P01024 749-1663; P01024 749-1663, biotin (EZ-Link Maleimide-PEG2-Biotin, after 1 mM DTT) where immobilised on streptavidin chips; none where amine-coupled). The assay can be described thus: SPR; biotin-coupled C3b.
In turn, B1 gave a Kd of 0.6 µM.
As for B2, the figure is 9.9 µM; as for B3, 10 µM; as for B4, 5.8 µM.
B5 gave a Kd of 5.6 µM.

For orientation: Kd means the equilibrium constant for the complex coming apart.
